Reference: PMC7321962

Assays:
[1] = biological target: T1, XPG-FLAG (full-length WT) (Homo sapiens, UniProt P28715 1-1186); assay: EMSA
T1 sequence: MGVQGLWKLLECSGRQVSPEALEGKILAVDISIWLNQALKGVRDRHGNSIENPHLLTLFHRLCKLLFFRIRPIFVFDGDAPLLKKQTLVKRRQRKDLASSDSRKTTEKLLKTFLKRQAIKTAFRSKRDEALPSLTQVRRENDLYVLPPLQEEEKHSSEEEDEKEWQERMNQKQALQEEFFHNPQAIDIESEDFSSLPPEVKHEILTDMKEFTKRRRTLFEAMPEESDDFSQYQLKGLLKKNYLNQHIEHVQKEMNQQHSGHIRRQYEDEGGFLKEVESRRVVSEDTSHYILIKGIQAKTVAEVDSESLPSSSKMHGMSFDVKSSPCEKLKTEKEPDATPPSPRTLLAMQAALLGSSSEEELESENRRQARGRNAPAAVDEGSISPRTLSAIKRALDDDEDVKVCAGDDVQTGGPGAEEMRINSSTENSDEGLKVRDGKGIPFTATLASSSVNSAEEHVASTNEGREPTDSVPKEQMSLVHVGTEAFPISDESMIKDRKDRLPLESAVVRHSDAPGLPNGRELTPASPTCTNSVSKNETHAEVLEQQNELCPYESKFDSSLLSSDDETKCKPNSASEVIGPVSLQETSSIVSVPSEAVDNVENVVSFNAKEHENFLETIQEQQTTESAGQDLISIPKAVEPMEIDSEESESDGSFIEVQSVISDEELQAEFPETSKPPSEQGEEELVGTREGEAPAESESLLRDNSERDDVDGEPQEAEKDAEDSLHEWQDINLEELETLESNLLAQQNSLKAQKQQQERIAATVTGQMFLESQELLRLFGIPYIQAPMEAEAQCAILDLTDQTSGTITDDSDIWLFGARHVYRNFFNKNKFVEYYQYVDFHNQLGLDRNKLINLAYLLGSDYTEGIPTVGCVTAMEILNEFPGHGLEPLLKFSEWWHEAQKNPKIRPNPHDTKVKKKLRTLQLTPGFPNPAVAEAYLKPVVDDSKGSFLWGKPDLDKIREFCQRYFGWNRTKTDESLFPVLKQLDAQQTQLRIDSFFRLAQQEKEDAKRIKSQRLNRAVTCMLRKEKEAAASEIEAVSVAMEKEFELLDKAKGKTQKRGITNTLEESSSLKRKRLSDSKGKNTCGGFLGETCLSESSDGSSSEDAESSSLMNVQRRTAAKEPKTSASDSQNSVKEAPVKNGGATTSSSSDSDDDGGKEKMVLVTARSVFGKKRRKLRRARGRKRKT

XPG FF67,68AA = biological target: T2, XPG FF67,68AA (Homo sapiens, UniProt P28715 1-1186, F67A;F68A); assay: EMSA
T2 sequence: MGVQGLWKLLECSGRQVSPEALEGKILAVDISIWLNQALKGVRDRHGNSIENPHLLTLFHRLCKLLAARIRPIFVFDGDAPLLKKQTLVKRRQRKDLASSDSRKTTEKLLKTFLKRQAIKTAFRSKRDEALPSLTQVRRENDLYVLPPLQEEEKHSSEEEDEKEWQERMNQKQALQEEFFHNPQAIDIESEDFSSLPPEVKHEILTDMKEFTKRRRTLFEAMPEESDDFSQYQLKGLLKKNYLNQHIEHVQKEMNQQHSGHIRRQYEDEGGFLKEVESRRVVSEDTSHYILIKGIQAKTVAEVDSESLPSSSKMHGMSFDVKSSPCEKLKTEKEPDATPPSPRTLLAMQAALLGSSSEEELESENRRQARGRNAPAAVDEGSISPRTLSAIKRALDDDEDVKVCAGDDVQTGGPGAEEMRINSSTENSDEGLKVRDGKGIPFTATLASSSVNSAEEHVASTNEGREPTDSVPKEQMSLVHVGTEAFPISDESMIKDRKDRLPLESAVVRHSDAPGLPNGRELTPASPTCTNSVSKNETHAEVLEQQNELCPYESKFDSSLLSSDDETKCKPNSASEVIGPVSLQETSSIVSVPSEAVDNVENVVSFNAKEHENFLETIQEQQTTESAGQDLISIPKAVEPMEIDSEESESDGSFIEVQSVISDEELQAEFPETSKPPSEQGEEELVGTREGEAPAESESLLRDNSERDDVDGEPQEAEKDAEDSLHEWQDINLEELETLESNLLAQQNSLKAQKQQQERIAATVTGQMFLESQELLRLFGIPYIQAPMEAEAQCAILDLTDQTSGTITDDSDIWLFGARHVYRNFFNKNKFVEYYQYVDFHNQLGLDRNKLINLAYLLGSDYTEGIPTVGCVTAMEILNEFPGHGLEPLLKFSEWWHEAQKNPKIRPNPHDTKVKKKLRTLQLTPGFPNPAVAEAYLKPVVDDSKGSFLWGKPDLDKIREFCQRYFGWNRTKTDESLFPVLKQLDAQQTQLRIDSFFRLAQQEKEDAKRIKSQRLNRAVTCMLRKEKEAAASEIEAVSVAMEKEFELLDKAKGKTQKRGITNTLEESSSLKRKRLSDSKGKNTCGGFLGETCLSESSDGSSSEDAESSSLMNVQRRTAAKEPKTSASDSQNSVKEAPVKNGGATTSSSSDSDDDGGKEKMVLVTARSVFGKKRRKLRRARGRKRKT

B1: HP15T/C 15-nt bubble DNA (mixed)
DNA 1: CGCGAAGCGGGGCAGACAACGTGGCGCTGTTTTTTTTTTTTTTTGTGTCCTAGCACAGCGTATG
DNA 2: CGCGAAGCGCATACGCTGTGCTAGGACACCCCCCCCCCCCCCCCCAGCGCCACGTTGTCTGCCC
binding result [1]: binds | binding result (XPG FF67,68AA): binds
